Legend:
[1] = biological target: A30P mutant α-synuclein (human) (UniProt P37840)
[2] = biological target: A53T mutant α-synuclein (human) (UniProt P37840)
[3] = biological target: Recombinant human α-synuclein (human) (UniProt P37840)
[4] = biological target: Recombinant human β-synuclein (human) (UniProt Q16143); assay: SEC; Superose 12, 50 mM Tris/HCl pH 7.4, 100 mM NaCl, 1 mM EDTA, 5% glycerol, 0.5 ml/min; 20-50 µg per run; in vitro aged α-synuclein, β-synuclein or co-incubated mixtures; mass estimated from gel filtration standards

reduction of isoaspartate formed in A30P α-synuclein on co-incubation with approximately equimolar β-synuclein, 0-20 days of in vitro ageing (methanol diffusion assay); value after 20 days [1]: 84.3%
reduction of isoaspartate formed in A53T α-synuclein on co-incubation with approximately equimolar β-synuclein, 0-20 days of in vitro ageing (methanol diffusion assay); value after 20 days [2]: 47.9%
reduction of isoaspartate formed in native α-synuclein on co-incubation with approximately equimolar β-synuclein, 0-20 days of in vitro ageing (methanol diffusion assay); value after 20 days [3]: 72.2%
stoichiometry N [4]: 4
Substance: Recombinant human β-synuclein (from UniProt Q16143 1-134) (natural protein)
